# Test results from paper PMC5510004, “Recruitment and positioning determine the specific role of the XPF‐ERCC1 endonuclease in interstrand crosslink repair”.
# T1: XPF G314E;ERCC1 wild type (hsERCC1) (Xenopus laevis;Homo sapiens?, UniProt A0A8J0PXV9;P07992 1-897;1-297, G314E|)
# T1 sequence 1: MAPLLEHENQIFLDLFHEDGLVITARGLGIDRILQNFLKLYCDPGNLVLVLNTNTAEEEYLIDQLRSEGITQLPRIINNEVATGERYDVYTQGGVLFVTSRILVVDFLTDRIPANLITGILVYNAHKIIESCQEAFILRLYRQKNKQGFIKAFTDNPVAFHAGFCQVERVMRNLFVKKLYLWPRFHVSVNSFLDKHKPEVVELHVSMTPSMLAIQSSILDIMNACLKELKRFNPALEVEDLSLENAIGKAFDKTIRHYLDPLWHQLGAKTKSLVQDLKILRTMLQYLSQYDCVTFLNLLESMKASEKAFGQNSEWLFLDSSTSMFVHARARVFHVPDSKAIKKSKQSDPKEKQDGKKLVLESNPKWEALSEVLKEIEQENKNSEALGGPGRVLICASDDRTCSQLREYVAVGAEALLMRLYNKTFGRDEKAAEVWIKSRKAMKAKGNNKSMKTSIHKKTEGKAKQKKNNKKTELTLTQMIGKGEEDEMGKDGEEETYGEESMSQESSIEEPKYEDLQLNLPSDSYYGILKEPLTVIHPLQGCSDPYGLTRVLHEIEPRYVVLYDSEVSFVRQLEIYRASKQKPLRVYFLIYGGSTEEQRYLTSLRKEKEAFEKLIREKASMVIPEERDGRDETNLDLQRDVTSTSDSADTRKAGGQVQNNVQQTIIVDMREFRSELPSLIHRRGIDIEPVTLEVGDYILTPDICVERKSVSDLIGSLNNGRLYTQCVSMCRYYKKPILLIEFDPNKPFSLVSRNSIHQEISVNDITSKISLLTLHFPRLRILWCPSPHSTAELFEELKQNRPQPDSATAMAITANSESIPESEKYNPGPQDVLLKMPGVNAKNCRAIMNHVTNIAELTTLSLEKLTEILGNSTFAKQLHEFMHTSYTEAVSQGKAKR
# T1 sequence 2: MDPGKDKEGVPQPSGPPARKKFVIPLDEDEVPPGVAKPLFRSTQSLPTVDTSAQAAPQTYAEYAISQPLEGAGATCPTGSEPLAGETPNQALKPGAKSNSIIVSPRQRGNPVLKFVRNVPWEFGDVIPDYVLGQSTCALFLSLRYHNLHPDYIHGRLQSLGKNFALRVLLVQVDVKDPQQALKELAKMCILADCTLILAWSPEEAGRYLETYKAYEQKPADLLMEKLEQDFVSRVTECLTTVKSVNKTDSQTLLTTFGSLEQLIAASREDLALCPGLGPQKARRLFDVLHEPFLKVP
# T2: XPF L219R;ERCC1 wild type (hsERCC1) (Xenopus laevis;Homo sapiens?, UniProt A0A8J0PXV9;P07992 1-897;1-297, L219R|)
# T2 sequence 1: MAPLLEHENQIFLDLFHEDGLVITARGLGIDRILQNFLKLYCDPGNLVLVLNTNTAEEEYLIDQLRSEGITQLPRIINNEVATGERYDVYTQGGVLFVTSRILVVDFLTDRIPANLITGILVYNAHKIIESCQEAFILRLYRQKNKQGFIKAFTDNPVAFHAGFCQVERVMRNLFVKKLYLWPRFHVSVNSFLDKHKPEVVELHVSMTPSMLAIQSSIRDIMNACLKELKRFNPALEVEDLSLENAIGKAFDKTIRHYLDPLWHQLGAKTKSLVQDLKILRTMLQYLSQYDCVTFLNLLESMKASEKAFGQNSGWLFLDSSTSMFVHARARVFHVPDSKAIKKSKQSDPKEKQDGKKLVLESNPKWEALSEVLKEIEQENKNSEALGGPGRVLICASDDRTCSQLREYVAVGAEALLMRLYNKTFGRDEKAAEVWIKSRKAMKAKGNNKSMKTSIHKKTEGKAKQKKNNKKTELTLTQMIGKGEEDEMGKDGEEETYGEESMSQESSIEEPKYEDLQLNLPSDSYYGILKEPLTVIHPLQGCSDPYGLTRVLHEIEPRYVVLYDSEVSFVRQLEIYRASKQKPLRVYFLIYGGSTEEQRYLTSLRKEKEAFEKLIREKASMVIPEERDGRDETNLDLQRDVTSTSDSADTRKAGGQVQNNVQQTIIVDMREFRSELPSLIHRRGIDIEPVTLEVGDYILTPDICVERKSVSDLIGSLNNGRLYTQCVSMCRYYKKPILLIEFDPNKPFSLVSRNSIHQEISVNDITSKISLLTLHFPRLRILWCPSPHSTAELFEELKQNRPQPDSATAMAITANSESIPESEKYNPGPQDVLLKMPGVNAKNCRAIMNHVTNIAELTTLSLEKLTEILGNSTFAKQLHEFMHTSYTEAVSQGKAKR
# T2 sequence 2: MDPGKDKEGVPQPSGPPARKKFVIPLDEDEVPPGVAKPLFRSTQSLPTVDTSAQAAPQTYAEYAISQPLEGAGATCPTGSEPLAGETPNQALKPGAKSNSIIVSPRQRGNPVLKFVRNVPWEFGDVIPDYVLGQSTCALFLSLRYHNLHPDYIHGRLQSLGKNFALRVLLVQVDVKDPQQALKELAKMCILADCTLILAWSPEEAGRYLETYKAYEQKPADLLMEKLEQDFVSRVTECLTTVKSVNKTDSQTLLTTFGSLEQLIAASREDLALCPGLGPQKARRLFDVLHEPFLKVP
# B1: 3' flap DNA substrate (F1+F2+F3) (dsDNA)
# DNA 1: CGCGATGCGGATCCAA
# DNA 2: CCTAGACTTAAGAGGCCAGACTTGGATCCGCATCGC
# DNA 3: GGCCTCTTAAGTCTAGG
# Experiments:
# [1] = target: T1, XPF G314E;ERCC1 wild type (hsERCC1); assay: fluorescence anisotropy; 2 mM Ca2+; comparable to wild type; 25 mM Hepes pH 8.0, 15% glycerol, 0.1 mg/ml BSA, 2 mM CaCl2, 10 nM DNA, 1 h at room temperature; settings: protein: recombinant;recombinant; tags: FLAG;His; copies: 1;1; label: 5'-FAM on F1; three strands 1:1:1
# [2] = target: T2, XPF L219R;ERCC1 wild type (hsERCC1); assay: as above; settings: protein: recombinant;recombinant; tags: FLAG;His; copies: 1;1; label: 5'-FAM on F1; three strands 1:1:1
binder,measurement,setting,value
B1,binding result,[1],binds
same,binding result,[2],binds
